Reference: the nanobody polyreactivity screen of Harvey et al. (2022)

Assay: yeast display, Sf9 membrane polyspecificity reagent, FACS + sequencing; frameworks hold sequencing errors
Summary of the method: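 In a synthetic yeast display library (Saccharomyces cerevisiae BJ5465), nanobody expression was induced with galactose for 36–48 hours. FACS gates were set low and high (top ~1%) using anti-HA fluorescence for expression and streptavidin fluorescence for binding of the Sf9 membrane reagent. Each polyreactivity label is drawn from the gate of origin.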

Sequence	polyreactivity (PSR sort gate)
QVQLVESGVGLVQAGGSLRLSCAASGFIFYNYAMGWYRQAPGKERELVASITSGGGTNYADSVKGRFTISRDNAKNTVYLQMNSLKPEDTAVYYCAVRGRGRFNGYGYWGQGTQVTVSS	high polyreactivity
QVQLVESGVGLVQAGGSLRLSCAASGFTFRRYAMGWYRQAPGKERELVAAISIRGGRTYYADSVKGRFTISRDNAKNTVYLQMNSLKPEDTAVYYCAADGVYALDVESDSWGQGTQVTVSS	high polyreactivity
QVQLVESGVGLVQAGGSLRLSCAASGFTFSYYAMGWYRKAPGKERELVAGITTGGGTNYADSVKGRFTISRDNAKNTVYLQMNSLKPEDPAVYYCNAVGAHWVSYSSPVRFDYWGQGTQVTVSS	low polyreactivity
QVQLVESGVGLVQAGGSLRLSCAASGFTFYSNAMGWYRQAPGKERELVAAITGRVGRTYYADSVKGRFTISRDNAKNTVYLLMNSLKPEDTAVYYCAAVYQVSTWGGRYYFRQGYDYWGQGTQVTVSS	high polyreactivity
QVQLVESGVGLVQAGGSLRLSCAASGIIFFFYAMGWYIQAPGKERELVAAISDDGVSTDYADSVKGRFTISRDNAKNTVYLQMNSLKPEDTAVYYCSAKNERVYPWFSFGYWGQGTQVTVSS	low polyreactivity
QVQLVESGVGLVQAGGSLRLSCAASGIIFLENAMGWYRQAPGKERELVAGISSGGNTNYADSVKGRFTISRDNAKNTDYLQMNSLKPEDTAVYYCNTDWYLPRYVLLGYFSGTEDSWGQGTQVTVSS	low polyreactivity
QVQLVESGVGLVQAGGSLRLSCAASGITFREYAMGWYRQAPGKERELVAAIRYSGGSTYYADSVKGRFTISRDNAMNTVYLQMNSLKPEDTAVYYCAADPRRTLSPQLSDYWGLGTQVTVSS	high polyreactivity
QVQLVESGVGLVQAGGSLRLSCAASGNIFGYYAMGWYRQAPGKERELVAAISRSGTRTYYADSVKGRFTISRDNAKNTVYLQMNSLKPEDTAVYYCNAAKSPARFQVNNFDYWGQGTQVTVSS	high polyreactivity
QVQLVESGVGLVQAGGSLRLSCAASGNIFTTYAMGWYRQAPGKERELVAAISRTGGRTSYADSVKGRFTISRDNAKNTVYLQMNSLKPEDTAVYYCAAVPTVRPSAPRARILSDYWGQGTQVTVSS	high polyreactivity
QVQLVESGVGLVQAGGSLRLSCAASGNTFLPYAMGWYRQAPGKERELVAANSWSGGSTYYADSVKGRFTISRDNAKNTVYLQMNSLKPEETAVYYSARRRIGTPAYYYWGHGTQVTVSS	high polyreactivity
QVQLVESGVGLVQAGGSLRLSCAASGRIFCYYAMGWYRQAPGKERELVATINGGGSTNYADSVKGRFTISRDNAKNTVYLQMNSLKPEDTAVYYCAAAQWAYWLLYKYWGQVTQVTVSS	low polyreactivity
QVQLVESGVGLVQAGGSLRLSCAASGRTFAQYAMGCYRQAPGKERELVAVISRCTGRTYYADSVKGRFTISRDNAKNTVYLQMNSLKPEDTALYYCNTSPKLTYALLYVYWGQGTQVNVSS	high polyreactivity
QVQLVESGVGLVQAGGSLRLSCAASGSIFEDYVMGWYRQAPGKERELVADITSGGTTYYADSVKGRFTISRDNAKNTVYLQMNSLKPEDTAVYYCAAEVDWVPFLLDYWGQGTQVTVSS	low polyreactivity
QVQLVESGVGLVQAGGSLRLSCAASGSIFEVYAMGWYRQAPGKEREFVATLSGSGGSTYYADSVKGRFTISRDNAKNTVYLQMNSLKPEDTAVYYCAASIAWYSSFVITCYYWGQGTQVTVSS	low polyreactivity
QVQLVESGVGLVQAGGSLRLSCAASGSIFVYYAMGWYRPAPGKERELVAAINFRGGNTYYADSVKGRFTISRDNAKNTVYLQMNRLKPEDTAVYYCAADYRWKWIGGARYDYWGQGTQVTVSS	low polyreactivity
QVQLVESGVGLVQAGGSLRLSCAASGSIITPYAMGWYRQAPGKERELVAAITSGGSTYADSVKGRFTISRDNAKNTVYLQMNSLKPEDTAVYYCAADRSYVYAGADMYYWGQGTQVTVSS	low polyreactivity

Sequence	polyreactivity (PSR sort gate)
QVQLVESGVGLVQAGGSLRLSCAASGSNFNTYTMGRYRQAPGKERELVAAITWSGGRTYYADSVKGRFTISRDNAKNTVYLQMNSLKPEDTAGYYCAADWGEDYTRDDYWGQGTQVTVSS	low polyreactivity
QVQLVESGVGLVQAGGSLRLSCAASGSTFGGYAMGWYRQAPGKERELVAAITSRSGRTYYADSVKGRFTISRDIAKNTVYLQMNSLKPEDTAVYYCATPQYPGRDYWGQGTQVTVSS	high polyreactivity
QVQLVESGVGLVQAGGSLRLSCAASGSTFSIYALGWYRQAPGKERELVAAISWDSDDTYYADSVNGRFTISRDNAKNTVYLQMNSLKPEDTAVYYCAADRLDRYYYWGQGTQVTVSS	low polyreactivity
QVQLVESGVGLVQAGGSLRLSCAASGSTFSYYAMGWYRQAPGKERELVAAITRSGGRTYYADSVKGRFTISRDNAKNTVYLQMNSLKPEDTAVYYCAALSVGTRRDYWGQGTQVTVSS	low polyreactivity
QVQLVESGVGLVQAGGSLRLSCAASGSTFYAYAMGWNRQAPGKERELVAAISSDGTNYADSVKGRFTISRDNAKNTVYLQMNSLKPDDTAVYYCAADLLLYSSQDNDYWGQGTQVTVSS	low polyreactivity
QVQLVESGVGLVQAGGSLRLSCAASGSTFYRNTMGWYRQAPGKERELVAAINTSGASTYYADSVKGRFTISRDNAKNTVYLQMNSLKPEDTAVYYCAALYRGYTGGYKFYYWGQGTQVTVSS	high polyreactivity
QVQLVESGVGLVQAGGSLRLSCAASGSTLVSYAKGWYIQAPGKERELVASISSGDSTYADSVKGRFTISRDNAKNTVYLQMNSLKPEDTAVYYCNVGNEGSYGFPVTYEYWGQGTQVTVSS	low polyreactivity
QVQLVESGVGLVQAGGSLRLSCAASGYIFYYYAMGWYRQAPGKESELVAAISSTVSTNYADSVKGRFTISRDNAKNTVYLQMNSLKPEDTAVYYCAAAQRVNHVWYDYWGQGTQVTVSS	low polyreactivity
QVQLVESGVGLVQAGGSLRLSCAASGYTFLYYAMGWYRQAPGTERELVAAISSGGRTYYADSVKGRFTISRDNAKNTVYLQMNSLKPEVTAVYYCNTGALIHNGYYGLDYWGQGTQVTVSS	high polyreactivity
QVQLVESGVGLVQAGGSLRLSCAASVYTFFIYAMRWYRHAHGQERELVARIRATGDSTYYADSVKGRFTISRDNAKNTVYLQMNSLKPDDTAVYYFNVRPVYSYREYGYWGQGTQVTVSS	high polyreactivity
QVQLVESGVGLVQAGGSLRLSCAATGSIFRVNAMGWYRQAPGKERELVAGIRWRGGSTYYADSVKGRFTISRDNAKNTVYLQMNSLKPEDTAVYYCAARSYPFIATYGYWGQGTQVTVSS	high polyreactivity
QVQLVESGVGLVQAGGSLRLSCAAYGSTFVSNAMGWDRQAPGKERELVAAISTSGGSTYYADSVKGRFTISRDNAKNTVYLQMNSLKPEDTAVYYCAKLLARGFRIWQDYDYWGQGTQVTVSS	low polyreactivity
QVQLVESGVGLVQAGGSLRLSCADSGLILSKYAKVWYRPAPGKEREFVAAITQTGSRTYYADSVKGRFTSSRDNAKNTVYLQMNSLKPEDTAVYYCNAVNYRSSRDSGYWGQGTQVTVSS	high polyreactivity
QVQLVESGVGLVQAGGSLRLSCASSGYTFFYYSMGWYRQAPGKEREFVAAISTGTGSTYYADSVKGRFTISRDNAKNTVYLQMNSLKPEDTAVYYCAADGTLYYFGLEYDYWGQGTQVTVSS	low polyreactivity
QVQLVESGVGLVQAGGSLRLSCGASGSIFVANVMGWYRQAPGKEREFVATISWNGGNTYYADSVKGRFTISRDNAKNTVYLQMNSLKPEDTAVYYCAAEPLTPSRDRVPYEYYYWGQGTQVTVSS	high polyreactivity
